{
  "source": "patent US6448377",
  "biological_target": "β2 adrenoceptor, tagged at the amino-terminus with the FLAG epitope (UniProt P07550)",
  "test": "cell-based or functional assay",
  "data": [
    {"substance": "membrane-tethered Gsα (tetGsα) (from UniProt P07550 1-64; P07550 343-412)", "values": [
      {"measurement": "GTPγS-sensitive high-affinity agonist binding sites", "result": 30, "unit": "%"},
      {"measurement": "basal GTPase activity, tetGsα membranes compared to Gsα membranes", "result": 1.6, "unit": "fold"},
      {"measurement": "isoproterenol-stimulated GTPase activity, tetGsα membranes compared to Gsα membranes", "result": 2.8, "unit": "fold"}
    ]}
  ]
}
